Data on 167 variants can be found in the RNAGym collection of RNA variant scans (doi:10.7554/elife.80360).

B1: Hairpin Ribozyme (parent)
chain: GUCCUCUUUCACGUGCGCGUGAAAGAGAGAAGUGAACCAGAGAAACACACGUUGUGGUAUAUUACCUGGUA

The series covers variants of B1. In words: self-cleavage, relative activity (ratio to wild type); higher = more cleavage; co-transcriptional.
G19A G29A: the self-cleavage turned out to be 0.173.
For A26U A61G the value was 0.187; for G27C G69U, 0.162; for G1U A64C, 0.166.
For G15C G42U the value was 0.19; for G21A G54U, 0.372; for C48G A59C, 0.119.
For C37G A59G the value was 0.0514; for A11C A43G, 0.0792; for U5A U33C, 0.0952.
For the variant U8C U67A, the self-cleavage amounted to 0.161.
In the case of C6U C10G, the self-cleavage was found to be 0.416.
For C10G U55A the value was 0.316.
On to A23U A45C, for which the self-cleavage was determined as 0.111.
Regarding A22G G56A, the self-cleavage came to 0.185.
With A22G G56U the figure was 0.0693; with A26G U60C, 0.963; with U2G A36C, 0.208.
For C6G A22C the value was 0.342.
A31G C37A: the self-cleavage worked out at 0.158.
Take G54C U60C: the self-cleavage turned out to be 0.47.
Consider C12A G57A, for which the self-cleavage came to 0.255.
Take G34A U60G: the self-cleavage was found to be 1.
On to G54A U55C, for which the self-cleavage is 0.502.
With U33G C50G, the self-cleavage was found to be 0.12.
For A39G A64G the value was 0.275; for A41U C50G, 0.756.
With G27C U58A the figure was 0.123; with A36G G57C, 0.124.
For G15C A61U the value was 0.181; for C4U G27C, 0.229.
As to U5C A71U, the self-cleavage worked out at 0.564.
With G54U U63C the figure was 0.214; with G19U U63C, 0.164.
Take A22G A39G: the self-cleavage came to 0.298.
For A26G G40C the value was 0.167; for G29U G32U, 0.164.
As for G21A A64G, the self-cleavage was determined as 0.418.
Turning to G1C C16A, the self-cleavage came to 0.0908.
For the variant C37A U58G, the self-cleavage came to 0.269.
For U62G U67G the value was 0.127; for A39C U58C, 0.568; for C3U C18U, 0.487.
With G17A A59U the figure was 0.116; with A41U U62G, 0.202.
For G40A C48A the value was 0.246; for U7G A31G, 0.503; for C6U A36U, 0.54.
In the case of A49C G57C, the self-cleavage worked out at 0.121.
For the variant A39G G54C, the self-cleavage is 0.131.
For C16G U58A the value was 0.488; for C12G C65G, 0.174; for C6G A47U, 0.13.
With G1A G17C the figure was 0.12; with A35G U63C, 0.233; with G56C A71G, 0.28.
With G1A U63A the figure was 0.146; with U20A U67A, 0.217; with G21A C65U, 0.147.
As for G56C U62G, the self-cleavage came out at 0.129.
As for A11C A44G, the self-cleavage was determined as 0.197.
With A26G A47U the figure was 0.152; with C48U U63A, 0.173; with C50U U60G, 0.205.
For C6A G32C the value was 0.133; for G27A G51C, 0.238; for A43C U62C, 0.129.
With U58A U60A the figure was 0.509; with U62A C66U, 0.143.
G17U A41U: the self-cleavage was found to be 1.51.
With A44G U63G the figure was 0.239.
For G42C G57U the value was 0.146; for G25U A45C, 0.219.
For A44G C65G the value was 0.192; for G1U A28C, 0.0863; for A59G G68C, 0.144.
With U2C U60G, the self-cleavage was 0.226.
As for U2C U60A, the self-cleavage is 0.312.
With A23C G57C the figure was 0.192; with G42A U67A, 0.219; with A59U C66G, 0.185.
With G21U A22U the figure was 0.809; with G19C A43C, 0.11; with C16G A64G, 0.511.
With A35U A64G the figure was 0.465.
As to A44U A59U, the self-cleavage came out at 0.0331.
In the case of A44U A59G, the self-cleavage was 0.253.
For G57A A61C, the self-cleavage was found to be 0.155.
With G21A A26G the figure was 0.658; with A24U C66U, 0.412; with G17U A49G, 0.818.
With C18A C46A the figure was 0.231; with U8G U53C, 0.954.
For U8G U53A the value was 0.567; for C12U A23C, 0.93.
As to G34C A71C, the self-cleavage worked out at 1.76.
For A28C G57A the value was 0.119; for A24G A61C, 0.203; for A47C A61U, 0.137.
For U53C A61C the value was 0.142; for U7G C66A, 0.205.
For U5A G42A the value was 0.217; for U58G U70C, 0.84.
Regarding G13A U60G, the self-cleavage is 0.374.
For G56C G69U the value was 0.313.
For C50U G54C the value was 0.534; for C38A G54C, 0.164.
For A30U C65G the value was 0.228; for C37A C65G, 0.124; for G17A U20G, 0.492.
For U5C C18G, the self-cleavage was found to be 0.251.
For the variant A41G U55G, the self-cleavage came to 0.138.
With U7G U14C the figure was 0.701; with U14A A71C, 1.34; with A30C C66U, 0.169.
As to G15C C48A, the self-cleavage amounted to 0.121.
For the variant C4G A11C, the self-cleavage came out at 0.113.
As to A36C U67A, the self-cleavage is 0.174.
For A22G C50U the value was 0.362; for A23C G34C, 1.26.
With G17U the figure was 0.961; with A35U G54A, 0.197; with A28C U63G, 0.176.
With G17U G25U the figure was 0.637; with G1U U58G, 0.253; with A49C U60A, 0.333.
Regarding C4G C12G, the self-cleavage was determined as 0.216.
With G1A A30U the figure was 0.159; with U2A G27A, 0.127.
For G42C U62A the value was 0.102; for C10G A11U, 0.358; for U7G C48G, 0.153.
With G29C A47G the figure was 0.0858; with G29C A47C, 0.15; with A11U A22U, 0.501.
U5G A49U: the self-cleavage was 0.127.
For C50G G57C the value was 0.181; for U14A G27A, 0.39.
Turning to A28C G42C, the self-cleavage is 0.109.
For A30U U58A the value was 0.115; for A26C A35G, 0.529.
For G32C A35C, the self-cleavage is 0.
For A23C A59U the value was 0.174; for A11C A28C, 0.481; for C10A U62G, 0.162.
With G17A A35U the figure was 0.778; with G40U, 0.175.
For A28U U67G the value was 0.201; for U2C G56U, 0.178.
In the case of G54A U58C, the self-cleavage was 0.635.
Consider G13U U20A, for which the self-cleavage is 0.73.
For C3U G19A the value was 0.443; for A44G A45G, 0.228; for C10U A36C, 0.662.
In the case of A35C C48G, the self-cleavage worked out at 0.131.
Regarding C6G A31C, the self-cleavage was determined as 0.0766.
For C6G G27U the value was 0.161; for G13C A31C, 0.227; for C6U C50U, 0.386.
Turning to C6A G27C, the self-cleavage is 0.118.
In the case of G27A A64C, the self-cleavage is 0.189.
Regarding A44C C66A, the self-cleavage was found to be 0.215.
With U20C U67C the figure was 0.2.
With U33C A39G the figure was 0.134.
Take G1A U55G: the self-cleavage was 0.0224.
C4U U20G: the self-cleavage worked out at 0.213.
G34A A36U: the self-cleavage turned out to be 0.832.
